# Columns and labels:
# [1] = test system: TM-V129A/I130A TβRI mutant (HA-tagged, in HA-caTβRI)
# [2] = test system: TβRI intracellular domain fragment (TβRI ICD), about 34 kDa
# TβRI intracellular domain fragment (TβRI ICD), about 34 kDa, sequence (chain, as listed by the source): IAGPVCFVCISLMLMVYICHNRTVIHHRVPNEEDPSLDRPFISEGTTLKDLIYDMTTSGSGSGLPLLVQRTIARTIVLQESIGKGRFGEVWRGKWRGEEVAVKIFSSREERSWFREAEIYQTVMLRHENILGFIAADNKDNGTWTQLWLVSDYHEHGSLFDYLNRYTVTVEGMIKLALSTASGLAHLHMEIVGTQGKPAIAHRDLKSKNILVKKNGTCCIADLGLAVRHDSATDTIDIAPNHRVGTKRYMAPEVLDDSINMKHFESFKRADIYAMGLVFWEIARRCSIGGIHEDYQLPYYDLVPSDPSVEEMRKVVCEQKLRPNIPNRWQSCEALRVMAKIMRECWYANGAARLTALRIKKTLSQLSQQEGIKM
Substance,production of TβRI ICD (immunoblot) [1],acetylation of the TβRI ICD (immunoblot with anti-acetyl-lysine) [2]
"Presenilin 1 (PS1), endogenous",Production of TβRI ICD was observed only in the TGF-treated cells transfected with caTβRI construct,–
"p300, endogenous",–,acetylation of the TβRI ICD was verified using an antibody specific for acetyl-lysine

# — patent US20140140998
